Biological target: Biotinylated Human CD39-His
Experiment: MSD equilibrium; Fab

SRF399-C
Kd: 0.053 nM

— patent publication US20210363268A1
